Reference: patent US9802997B2, “Peptides and combination of peptides for use in immunotherapy against various tumors” (immatics biotechnologies GmbH, priority 2015, dated 2017)

Molecular target: HLA-A*02:01 (Homo sapiens, UniProt P04439, D140Y/D185E/D98H/E176V/E277Q/G131W/G231S/I119V/I121R/I166T/I218V/L300P/L318F/N151K/N90K/P208A/P217A/Q86G/Q94H/R138H/R169H/T345S)
Test: MHC binding assay (UV-ligand exchange, beta2m ELISA)
Conditions: binding to HLA-A*02:01, β2m ELISA
Source text: Candidate peptides for T cell based therapies according to the present invention were further tested for their MHC binding capacity (affinity). The individual peptide-MHC complexes were produced by UV-ligand exchange, where a UV-sensitive peptide is cleaved upon UV-irradiation, and exchanged with the peptide of interest as analyzed. Only peptide candidates that can effectively bind and stabilize the peptide-receptive MHC molecules prevent dissociation of the MHC complexes. To determine the yield of the exchange reaction, an ELISA was performed based on the detection of the light chain (β2m) of stabilized MHC complexes. The assay was performed as generally described in Rodenko et al. (Rodenko et al., 2006).
96 well MAXISorp plates (NUNC) were coated over night with 2 ug/ml streptavidin in PBS at room temperature, washed 4× and blocked for 1 h at 37° C. in 2% BSA containing blocking buffer. Refolded HLA-A*02:01/MLA-001 monomers served as standards, covering the range of 15-500 ng/ml. Peptide-MHC monomers of the UV-exchange reaction were diluted 100 fold in blocking buffer. Samples were incubated for 1 h at 37° C., washed four times, incubated with 2 ug/ml HRP conjugated anti-β2m for 1 h at 37° C., washed again and detected with TMB solution that is stopped with […]. Absorption was measured at 450 nm. Candidate peptides that show a high exchange yield (preferably higher than 50%, most preferred higher than 75%) are generally preferred for a generation and production of antibodies or fragments thereof, and/or T cell receptors or fragments thereof, as they show sufficient avidity to the MHC molecules and prevent dissociation of the MHC complexes.

Substance	Peptide exchange (MHC class I binding score, peptide exchange yield)
212 (MTLSEIHAV; listed as Homo sapiens) [compound 212]	++ (≧20% = ++)
124 (ALLLRLFTI; listed as Homo sapiens) [compound 124]	++ (≧20% = ++)
223 (ALHPVQFYL; listed as Homo sapiens) [compound 223]	+++ (≧50 = +++)
154 (AIIKEIQTV; listed as Homo sapiens) [compound 154]	++ (≧20% = ++)
26 (VLDGKVAVV; listed as Homo sapiens) [compound 26]	+++ (≧50 = +++)
176 (VQSGLRILL; listed as Homo sapiens) [compound 176]	++ (≧20% = ++)
184 (ALDSTIAHL; listed as Homo sapiens) [compound 184]	++ (≧20% = ++)
253 (KLLAVIHEL; listed as Homo sapiens) [compound 253]	+++ (≧50 = +++)
272 (FVMEGEPPKL; listed as Homo sapiens) [compound 272]	++ (≧20% = ++)
180 (RLYEEEIRI; listed as Homo sapiens) [compound 180]	+++ (≧50 = +++)
44 (AVFNLVHVV; listed as Homo sapiens) [compound 44]	+++ (≧50 = +++)
281 (LLLESDPKVYSL; listed as Homo sapiens) [compound 281]	++ (≧20% = ++)
31 (GLLETTGLLAT; listed as Homo sapiens) [compound 31]	+++ (≧50 = +++)
204 (SEWGSPHAAVP; listed as Homo sapiens) [compound 204]	+++ (≧50 = +++)
103 (YLADTVQKL; listed as Homo sapiens) [compound 103]	++ (≧20% = ++)
18 (KTASINQNV; listed as Homo sapiens) [compound 18]	++ (≧20% = ++)
84 (FLLEREQLL; listed as Homo sapiens) [compound 84]	++++ (≧75% = ++++)
64 (SLYAGSNNQV; listed as Homo sapiens) [compound 64]	++ (≧20% = ++)
140 (FLDSQITTV; listed as Homo sapiens) [compound 140]	+++ (≧50 = +++)
150 (VLLDMVHSL; listed as Homo sapiens) [compound 150]	+++ (≧50 = +++)
262 (LLLEAVWHL; listed as Homo sapiens) [compound 262]	+++ (≧50 = +++)

Substance	Peptide exchange (MHC class I binding score, peptide exchange yield)
45 (FLPVSVVYV; listed as Homo sapiens) [compound 45]	+++ (≧50 = +++)
256 (FLNDIFERI; listed as Homo sapiens) [compound 256]	+++ (≧50 = +++)
177 (ALINVLNAL; listed as Homo sapiens) [compound 177]	+++ (≧50 = +++)
133 (FLDGRPLTL; listed as Homo sapiens) [compound 133]	++ (≧20% = ++)
194 (KLLEEVQLL; listed as Homo sapiens) [compound 194]	++ (≧20% = ++)
174 (ALYSGDLHAA; listed as Homo sapiens) [compound 174]	++ (≧20% = ++)
151 (DISKRIQSL; listed as Homo sapiens) [compound 151]	++ (≧20% = ++)
244 (NVAEIVIHI; listed as Homo sapiens) [compound 244]	+++ (≧50 = +++)
210 (GLAGDNIYL; listed as Homo sapiens) [compound 210]	+++ (≧50 = +++)
191 (AAIEIFEKV; listed as Homo sapiens) [compound 191]	+++ (≧50 = +++)
53 (AQHLSTLLL; listed as Homo sapiens) [compound 53]	+ (≧10% = +)
3 (RVIDDSLVVGV; listed as Homo sapiens) [compound 3]	+++ (≧50 = +++)
165 (SLLDYEVSI; listed as Homo sapiens) [compound 165]	+++ (≧50 = +++)
214 (ALFETLIQL; listed as Homo sapiens) [compound 214]	+++ (≧50 = +++)
228 (SLLELDGINLRL; listed as Homo sapiens) [compound 228]	+++ (≧50 = +++)
182 (GLQDGFQITV; listed as Homo sapiens) [compound 182]	+++ (≧50 = +++)
23 (ALLSPLSLA; listed as Homo sapiens) [compound 23]	+++ (≧50 = +++)
282 (SLYALHVKA; listed as Homo sapiens) [compound 282]	++ (≧20% = ++)
59 (ALADGIKSFLL; listed as Homo sapiens) [compound 59]	+++ (≧50 = +++)
276 (RMPTVLQCV; listed as Homo sapiens) [compound 276]	+++ (≧50 = +++)
269 (GLLDCPIFL; listed as Homo sapiens) [compound 269]	++++ (≧75% = ++++)

Substance	Peptide exchange (MHC class I binding score, peptide exchange yield)
275 (AVPPPPSSV; listed as Homo sapiens) [compound 275]	++ (≧20% = ++)
19 (KVFELDLVTL; listed as Homo sapiens) [compound 19]	++ (≧20% = ++)
258 (QLVQRVASV; listed as Homo sapiens) [compound 258]	++ (≧20% = ++)
217 (LLWPSSVPA; listed as Homo sapiens) [compound 217]	+++ (≧50 = +++)
24 (KVWSDVTPL; listed as Homo sapiens) [compound 24]	+++ (≧50 = +++)
112 (ILAQDVAQL; listed as Homo sapiens) [compound 112]	+++ (≧50 = +++)
87 (KLLSLLEEA; listed as Homo sapiens) [compound 87]	+++ (≧50 = +++)
86 (SLFSNIESV; listed as Homo sapiens) [compound 86]	+++ (≧50 = +++)
170 (FIAAVVEKV; listed as Homo sapiens) [compound 170]	++ (≧20% = ++)
110 (QIQGQVSEV; listed as Homo sapiens) [compound 110]	++ (≧20% = ++)
265 (FLLDKPQDLSI; listed as Homo sapiens) [compound 265]	+++ (≧50 = +++)
179 (TLGEIIKGV; listed as Homo sapiens) [compound 179]	+++ (≧50 = +++)
145 (ALEEKLENV; listed as Homo sapiens) [compound 145]	+++ (≧50 = +++)
234 (VLLNEILEQV; listed as Homo sapiens) [compound 234]	++++ (≧75% = ++++)
41 (IVTEIISEI; listed as Homo sapiens) [compound 41]	+++ (≧50 = +++)
105 (AMLASQTEA; listed as Homo sapiens) [compound 105]	++ (≧20% = ++)
111 (AQLEGKLVSI; listed as Homo sapiens) [compound 111]	+++ (≧50 = +++)
146 (VVAAHLAGA; listed as Homo sapiens) [compound 146]	++ (≧20% = ++)
207 (KLFETVEEL; listed as Homo sapiens) [compound 207]	+++ (≧50 = +++)
183 (ALSYILPYL; listed as Homo sapiens) [compound 183]	+++ (≧50 = +++)
